Data set [1] concerns the molecule itself. The experiment in a line: FRET or BRET.
Data set [2] deals with the molecule itself. The experiment in a line: FRET or BRET. This is another data set of the same source. Background: BRET reads energy transfer from a luciferase to a nearby fluorophore.

Read-outs that look alike come from different tables or passages of the source.

B1: RstBDC (DHp and CA domains of E. coli RstB, amino acids 201-433) (domain or fragment, UniProt P18392 201-433, looked up)
chain: MADNINALIASKKQLIDGIAHELRTPLVRLRYRLEMSDNLSAAESQALNRDISQLEALIEELLTYARLDRPQNELHLSEPDLPLWLSTHLADIQAVTPDKTVRIKTLVQGHYAALDMRLMERVLDNLLNNALRYCHSTVETSLLLSGNRATLIVEDDGPGIAPENREHIFEPFVRLDPSRDRSTGGCGLGLAIVHSIALAMGGTVNCDTSELGGARFSFSWPLWHNIPQFTSA
The term Kd denotes the free concentration of one partner at which half of the binding sites on the other are occupied at equilibrium, for simple one-to-one binding. In turn, B1 registered a Kd in “FRET or BRET [1]” of 270 µM.

B2: EnvZDC (DHp and CA domains of E. coli EnvZ, amino acids 223-450) (domain or fragment, UniProt P0AEJ4 223-450, looked up)
chain: MAAGVKQLADDRTLLMAGVSHDLRTPLTRIRLATEMMSEQDGYLAESINKDIEECNAIIEQFIDYLRTGQEMPMEMADLNAVLGEVIAAESGYEREIETALYPGSIEVKMHPLSIKRAVANMVVNAARYGNGWIKVSSGTEPNRAWFQVEDDGPGIAPEQRKHLFQPFVRGDSARTISGTGLGLAIVQRIVDNHNGMLELGTSERGGLSIRAWLPVPVTRAQGTTKEG
As to B2, the Kd in “FRET or BRET [2]” came to 0.1 µM.

B3: RstBHDC (cytoplasmic HAMP, DHp and CA domains of E. coli histidine kinase RstB, amino acids 157-433) (domain or fragment, UniProt P18392 157-433, looked up)
chain: MRPHWQDMLKLEAAAQRFGDGHLNERIHFDEGSSFERLGVAFNQMADNINALIASKKQLIDGIAHELRTPLVRLRYRLEMSDNLSAAESQALNRDISQLEALIEELLTYARLDRPQNELHLSEPDLPLWLSTHLADIQAVTPDKTVRIKTLVQGHYAALDMRLMERVLDNLLNNALRYCHSTVETSLLLSGNRATLIVEDDGPGIAPENREHIFEPFVRLDPSRDRSTGGCGLGLAIVHSIALAMGGTVNCDTSELGGARFSFSWPLWHNIPQFTSA
In the data set “FRET or BRET [2]”, B3 had a Kd of 0.3 µM.

B4: EnvZHDC (cytoplasmic HAMP, DHp and CA domains of E. coli histidine kinase EnvZ, amino acids 179-450) (domain or fragment, UniProt P0AEJ4 179-450, looked up)
chain: IRIQNRPLVDLEHAALQVGKGIIPPPLREYGASEVRSVTRAFNHMAAGVKQLADDRTLLMAGVSHDLRTPLTRIRLATEMMSEQDGYLAESINKDIEECNAIIEQFIDYLRTGQEMPMEMADLNAVLGEVIAAESGYEREIETALYPGSIEVKMHPLSIKRAVANMVVNAARYGNGWIKVSSGTEPNRAWFQVEDDGPGIAPEQRKHLFQPFVRGDSARTISGTGLGLAIVQRIVDNHNGMLELGTSERGGLSIRAWLPVPVTRAQGTTKEG
In the data set “FRET or BRET [2]”, B4 came in with a Kd of 0.4 µM.

(Values after paper PMC3210482 (Journal of molecular biology, 2011).)
